From patent US20040091578A1 (priority 2001, published 2004)

Assays:
castor seed 2S protein = castor seed 2S protein (Ricinus communis, UniProt P01089); format: biochemical; conditions: 20 min at 25° C.
pepsin [1] = target: T1, pepsin (Sus scrofa, UniProt P00791); assay: Pepsin assay in simulated gastric fluid (Example 39); format: in vitro ADME, porcine
T1 construct: purchased Sigma
Protocol: BLG, 640 μg, or milk, 1 mg protein (i.e., about 30 μl), was incubated with or without the thioredoxin system (NTS) at either 4° C. […] The BLG, 320 μg, or milk, 500 μg protein, was then treated in 200 μl of simulated gastric fluid (SGF) as described by Astwood, J. D. et al. (1996), “Stability of food allergens to digestion in vitro”, Nature Biotechnol. 14:1269-1273. SGF consists of 0.32% pepsin (w/v) and 30 mM NaCl adjusted at pH 1.2 with HCl (Board of Trustees (ed.) 1995, Simulated Gastric Fluid, TS., pp. 2053 in the United States Pharmacopeia 23, The National Formulary 18. United States Pharmacopeial Convention, Inc. Rockville, Md.). The reaction mixture was incubated at 37° C. and stopped by adding 0.375-fold volume of 160 mM Na2CO3 (ca. pH 7) after 0, 0.25, 1, 2, 4, 8, 15, 30 and 60 min incubation. The protein mixture was then subjected to SDS-PAGE (15% gels) and stained for protein with Coomassie blue as described below. As indicated, the allergenicity of the digested samples was determined by skin test analysis.

atopic dogs = assay: Skin tests with milk and BLG in atopic dogs (Example 39); format: in vivo; conditions: dog model skin tests
Protocol: Newborn pups from two litters of the atopic dog colony, designated CGB and GCB, were injected subcutaneously at day 1 with 1 μg each of wheat, cows milk and beef extract (Miles, Inc., Elkhart, Ind., described in Example 33) in 0.2 ml of alum. A third litter, designated CBB, was injected with a soy extract (Miles, Inc. described in Example 33) in addition to these same allergens. Procedures for the sensitization, testing and maintenance of the pups were substantially the same as those described in Example 36.
About 3 min prior to skin testing, each dog received 4-5 ml of filtered 0.5% Evans blue dye solution (equivalent to 0.2 ml of 0.5% Evans blue dye per kg of weight) through a cephalic vein to enhance assessment of the cutaneous IgE antibodies. Serial dilutions of 100 μl of each sample were injected intradermally on the abdominal skin to establish the titer. After 15-20 min, the allergic response was determined by measuring the size of the blue wheal reaction (maximum length and width). An appropriate negative control (buffer diluted in physiological saline) was included for each animal tested. Repeated tests with thioredoxin, NTR, NADPH and pepsin alone were consistently negative.

pepsin [2] = target: T1, pepsin; assay: Stability to pepsin in simulated gastric fluid (Example 44); format: in vitro ADME, porcine; conditions: 37° C., 0.32% pepsin
Protocol: Assay for Stability to Pepsin. BLG (1 mg/ml) or milk (15 mg/ml) were mixed with simulated gastric fluid (SGF) to give 0.32% pepsin and incubated for the indicated times at 37° C. as described in Example 39 and Astwood et al., 1996, herein incorporated by reference. The digested proteins were analyzed by reducing SDS-PACE (10 to 20% gradient gel) also as described in Laemmli, 1970, herein incorporated by reference.

[3] = Redox stability of reduced BLG in air; format: physicochemical; conditions: NTS-treated raw milk without buffer, stored at 4° C. in air
Protocol: BLG is known to contain two disulfides, both intramolecular (See, FIG. 8): one clearly accessible on the surface and located close to the C-terminus (Cys 66-Cys 160) and the other, close to the core, located between two β-sheets (Cys 106-Cys 119 or possibly Cys 106-Cys 121). Sequence analysis confirmed that the exposed disulfide (Cys 66-Cys 160) was reduced at 55° C. […] Differential reduction of BLG could also be achieved by altering pH. […] Furthermore, the BLG in this treated milk without buffer remained reduced for 2 days when stored at 4° C. in air (data not shown).
Two sulfhydryl (SH) groups can often spontaneously react to form an S—S bond in the presence of oxygen. […] For example, the reduced form of β-lactoglobulin (BLG), a major allergen of cow's milk, is fully reoxidized after 3 days in air whether reduced by either NTS or DTT. This invention provides for the stabilization of proteins, including allergenic proteins reduced by the NTS at 4° C. and by DTT at 55° C. Other physiological reductants such as lipoic acid may also be used to initially reduce the proteins. In general, the reduction reactions were conducted as described in previous examples. The proteins are stabilized in that the SH groups of these proteins and allergens are blocked and prevented from reoxidizing to form S—S bonds. […]

trypsin [4] = assay: Trypsin proteolysis of purified milk allergens; format: biochemical; conditions: 10 μg NTS reduced protein, 2 μg trypsin
Protocol: The analysis of the reduction was done using the mBBr/SDS-PAGE techniques. Further in this study, when 10 μg of an NTS reduced purified milk allergen protein, β-lactoglobulin (Sigma Chemical Co.), was treated with 2 μg of trypsin, proteolysis was 100% as compared with only 50% for the identically trypsin treated oxidized β-lactoglobulin. […] However, 10 μg of purified α-lactalbumin reduced by the NTS was proteolyzed 80% by trypsin. Also 10 μg of α-lactalbumin reduced by 0.8 μg of thioredoxin and 0.5 mM DTT was 100% proteolyzed by 2 μg of trypsin.

[5] = test system: wheat protease preparation; assay: Susceptibility to proteolysis by a plant protease preparation, SDS-PAGE densitometry; format: biochemical
Protocol: The endosperm (10-15 g fresh weight) isolated from 5-day germinated wheat seeds by excising the roots and shoots was extracted for 30 minutes at 4° C. with 5 volumes of 200 mM sodium acetate, pH 4.6, containing 10 mM β-mercaptoenthanol. The homogenate was centrifuged for 20 minutes at 48,000 g, 4° C. The pellet was discarded and the supernatant fluid was fractionated with 30-70% ammonium sulfate. This fraction, which represented the protease preparation, was resuspended in a minimum volume of 20 mM sodium acetate, pH 4.6, containing 10 mM β-mercaptoenthanol, and dialyzed against this buffer overnight at 4° C.
Unless indicated, the reduction of the trypsin inhibitors (0.4 mg/ml) was carried out in 0.1 ml of 20 mM sodium phosphate buffer, pH 7.9 containing 10 mM EDTA at 30° C. for 2 hours. The concentrations of thioredoxin, NTR, and NADPH were 0.024 mg/ml, 0.02 mg/ml, and 0.25 mM, respectively. […] Following reduction, aliquots of the inhibitor mixture were withdrawn either for determination of trypsin inhibitory activity or proteolytic susceptibility. In the subtilisin tests, the inhibitor mixture (50 μl) was directly mixed with subtilisin and incubated at room temperature for 1 hour. With the wheat protease preparation, the pH of the inhibitor mixture (50 μl) was first adjusted to 4.7 by mixing with 35 μl of 200 mM sodium acetate, pH 4.6; 10 μl of the wheat protease preparation was then added and incubation was continued for 2 hours at 37° C. To stop digestion with subtilisin, 2 μl of 100 mM phenylmethylsulfonyl fluoride (PMSF) and 10 μl of 10% SDS were added to the digestion mixture. With the plant protease preparation, digestion was stopped by adding an equal volume of SDS sample buffer [0.125 M Tris-HCl, pH 6.8, 4% (w/v) SDS, 20% (v/v) glycerol, 10% (v/v) β-mercaptoethanol, and 0.02% (w/v) bromophenol blue]. Proteolytic products were analyzed by electrophoresis with 12% or 16% SDS polyacrylamide slab gels (Laemmli, 1970). The dried slab gels were scanned with a laser densitometer (Pharmacia-LKB UltraScan XL) and the peak area of the KTI or BBTI protein band was obtained by integration with a Pharmacia GelScan XL software program.
To test whether the reduced forms of KTI and BBTI show decreased stability to proteases other than trypsin, both the reduced and oxidized forms of KTI and BBTI were incubated with a wheat protease preparation or with subtilisin and the proteolytic products were analyzed by SDS-PAGE. The extent of proteolysis was determined by measuring the abundance of intact protein on SDS gels by laser densitometer. When tested with a protease preparation from 5-day germinated wheat seeds, the oxidized form of the Kunitz inhibitor was almost completely resistant to digestion whereas the thioredoxin-reduced form was susceptible to protease. […] The nature of the proteolytic reaction was not investigated, but it is noted that peptide products were not detected on SDS gels.

trypsin [6] = conditions: soy flour, 30 min at 120° C. (Friedman et al., 1991); cited from earlier work
glutaredoxin = target: T2, glutaredoxin (Escherichia coli, UniProt P68688); assay: Reduction by glutaredoxin, mBBr/SDS-PAGE with densitometric scanning; format: biochemical; conditions: E. coli glutaredoxin, glutathione reductase, NADPH
T2 sequence (P68688 1-85): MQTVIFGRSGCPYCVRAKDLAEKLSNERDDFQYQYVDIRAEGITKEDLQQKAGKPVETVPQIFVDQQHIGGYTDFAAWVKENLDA
Protocol: Direct reduction of the proteins under study was determined by a modification of the method of Crawford et al. (Crawford, N. A. et al. (1989), Arch. Biochem. Biophys. 271:223-239). The reaction was carried out in 100 mM potassium phosphate buffer, pH 7.1, containing 10 mM EDTA and 16% glycerol in a final volume of 0.1 ml. As indicated, 0.7 μg (0.1 μM) NTR and 1 μg (0.8 μM) thioredoxin (both routinely from E. coli were added to 70 μl of the buffer solution containing 1 mM NADPH and 10 μg (2 to 17 μM) of target protein. When thioredoxin was reduced by dithiothreitol (DTT, 0.5 mM), NADPH and NTR were omitted. Assays with reduced glutathione were performed similarly, but at a final concentration of 1 mM. After incubation for 20 min, 100 nmoles of mBBr were added and the reaction was continued for another 15 min. To stop the reaction and derivatize excess mBBr, 10 μl of 10% SDS and 10 μl of 100 mM β-mercaptoethanol were added and the samples were then applied to the gels. […]
This ability was tested, using glutaredoxin from E. coli and the seed proteins currently under study. Reduction activity was monitored by the mBBr/SDS polyacrylamide gel electrophoresis procedure coupled with densitometric scanning.

trypsin [7] = assay: Trypsin inhibition assay; format: biochemical
Protocol: Unless indicated, the reduction of the trypsin inhibitors (0.4 mg/ml) was carried out in 0.1 ml of 20 mM sodium phosphate buffer, pH 7.9 containing 10 mM EDTA at 30° C. for 2 hours. The concentrations of thioredoxin, NTR, and NADPH were 0.024 mg/ml, 0.02 mg/ml, and 0.25 mM, respectively. […] Following reduction, aliquots of the inhibitor mixture were withdrawn either for determination of trypsin inhibitory activity or proteolytic susceptibility. In the subtilisin tests, the inhibitor mixture (50 μl) was directly mixed with subtilisin and incubated at room temperature for 1 hour. […] Proteolytic products were analyzed by electrophoresis with 12% or 16% SDS polyacrylamide slab gels (Laemmli, 1970). […]
Thioredoxin and NTR were assayed as previously described by Florencio et al. (1988). Trypsin activity was measured in 50 mM Tris-HCl, pH 7.9, by following the increase in absorbance at 253 nm with N-benzoyl-L-arginine ethyl ester as substrate (Mundy et al., 1984) or by the release of azo dye into the trichloroacetic acid (TCA)-soluble fraction from azocasein substrate (see below). For trypsin inhibition assays, trypsin (5 to 10 μg) was preincubated with appropriate amounts of KTI or BBTI for 5 minutes at room temperature in 50 mM Tris-HCl, pH 7.9 and proteolytic activity was then determined. […]

T1 sequence (P00791 60-385): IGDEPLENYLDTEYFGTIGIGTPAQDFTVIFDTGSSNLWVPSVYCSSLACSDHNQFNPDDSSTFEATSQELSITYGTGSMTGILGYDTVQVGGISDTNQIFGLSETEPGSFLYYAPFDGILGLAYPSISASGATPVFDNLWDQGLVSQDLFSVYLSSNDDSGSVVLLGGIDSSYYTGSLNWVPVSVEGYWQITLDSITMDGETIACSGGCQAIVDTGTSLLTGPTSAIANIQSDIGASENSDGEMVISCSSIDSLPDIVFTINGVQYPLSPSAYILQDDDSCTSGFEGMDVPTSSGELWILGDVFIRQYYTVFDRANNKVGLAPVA
castor seed 2S protein, sequence (P01089 194-258 limits assumed): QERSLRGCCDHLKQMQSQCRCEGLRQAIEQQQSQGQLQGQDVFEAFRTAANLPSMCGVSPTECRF
castor seed 2S protein, sequence (P01089 157-190 partner limits assumed): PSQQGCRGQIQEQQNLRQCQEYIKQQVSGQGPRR

O[C@H](CS)[C@H](O)CS (racemic) [DTT, dithiothreitol]
Relative Reduction (%) (castor seed 2S protein): 67%

β-lactoglobulin: bovine β-lactoglobulin, major milk allergen; untreated (oxidized) control in Tables XVIII, XXI-XXIV
time resisting digestion in SGF (pepsin [1]; oxidized BLG in milk): at least 60 min | time to digestion in SGF (pepsin [1]; thioredoxin-reduced BLG in milk): ≤ 60 s | share of the total wheal-inducing activity of milk (atopic dogs): 80% | half-life in SGF (pepsin [2]): about 2 hours | time BLG remained reduced [3]: 2 days | proteolysis by trypsin (trypsin [4]): 100%

B1: Soybean Kunitz: Kunitz soybean trypsin inhibitor (protein, UniProt P01070 25-205, looked up)
Trypsin inhibitor A: DFVLDNEGNPLENGGTYYILSDITAFGGIRAAPTGNERCPLTVVQSRNELDKGIGTIISSPYRIRFIAEGHPLSLKFDSFAVIMLCVGIPTEWSVVEDLPEGPAVKIGENKDAMDGWFRLERVSDDEFNNYKLVFCPQQAEDDKCGDIGISIDHDDGTRRLVVSKNKPLVVQFQKLDKESL
Relative Abundance ([5]; Protease after E. coli NTS): 22.1 | Relative Abundance ([5]; Protease after NTS minus NADPH): 97.7 | Relative Abundance ([5]; Protease after NTS minus NTR): 97.9 | Relative Abundance ([5]; Protease after NTS minus thioredoxin): 90.2 | Relative Abundance ([5]; Protease, No reduction system, no protease = 100): 97.9 | degraded ([5]; all components of NTS present): about 80% | original trypsin inhibitor activity remaining (trypsin [6]): about 20% | percentage reduction by glutaredoxin relative to E. coli thioredoxin (glutaredoxin): ineffective | increase in trypsin activity effected by the NADP/thioredoxin system (trypsin [7]): 3 fold
